This is an account of results in US20090175866A1, “TREATMENT OF B-CELL MALIGNANCIES” (priority 2004, published 2009).

In one experiment the target is T1, FGFR3-Y373C (Homo sapiens, UniProt P22607, Y373C).
T1 construct: expressed in transfected cells; host or cells: B9 cells
Nature of the experiment: FGF-stimulated growth of B9 cells expressing Y373C-FGFR3. It counts as cell-based. On the procedure:
Non-transformed rat chondrocyte cell line expressing PGFR3 in an inducible manner (RCJ-FGFR3) has been described previously (Rauchenberger R. et al. J. Biol. Chem. 2003; 278:38194-205). Cells were maintained in α-Minimum Essential Media supplemented with 15% fetal calf serum (FCS), 2 mM L-Glutamine, 100 U/ml penicillin, 100 μg/ml streptomycin, 600 μg/ml G418 (Gibco BRL, Ontario, Canada), 2 μg/ml Tetracyclin (Sigma, Ontario, Canada), and 50 μg/ml HygromycinB (Gibco BRL). FGFR3 expression was induced by removal of tetracyclin and serum starvation. […]
(§1) Cell viability was assessed by 3-(4,5-dimethylthiazol)-2,5-diphenyl tetrazolium (MTT) or (2,3-bis(2-methoxy-4-nitro-5-sulphophenyl)-5-[(phenylamino) carbonyl]-2H-tetrazolium hydroxide (XTT) dye absorbance where indicated. Cells were seeded in 96-well plates at a density of 20,000 (FDCP-1 cells), 5,000 (B9 cells) or 25,000 cells (MM cell lines) per well in culture medium. Cells were incubated in the absence or presence of one of the following cytokines: 10 ng/ml FGF9 and 5 μg/ml heparin, 1% murine IL-6, 50 ng/ml IGF-1 or 50 ng/ml human IL-6 where indicated and increasing concentrations of PRO-001, control antibody (purified human Fab) or 100 nM PD173074. […]

The subject of another experiment is ERK1/2 phosphorylation. Briefly: FGF-induced ERK phosphorylation in primary myeloma cells (flow cytometry). It counts as cell-based, human. Conditions: 5 μg/ml, 2 h pre-incubation. On the procedure: FIGS. 6 A-B are flow cytometry charts of human primary myeloma cells treated with anti-FGFR antibody PRO-001. A: Freshly isolated BMSCs were stained with PRO-001 (black line) or control antibody (grey line) and then stained with PE-conjugated anti-human secondary antibody. B: Primary myeloma cells were incubated in the absence (filled) or presence of FGF (light line) or pre-incubated with 5 μg/ml PRO-001 (dark line) for 2 h and then stimulated with FGF. ERK1/2 phosphorylation was assessed by flow cytometry analysis.
Determination of ERK1/2 phosphorylation by flow cytometry has been described previously (Chow S, et al., Cytometry 2001; 46:72-78). Cells were serum-starved overnight and then stimulated with 30 ng/ml of aFGF and 10 μg/ml heparin for 10 minutes at 37° C. The cells were immediately fixed by adding 10% formaldehyde directly into the culture medium to obtain a final concentration of 2%. Cells were incubated in fixative for 10 min at 37° C. then on ice for an additional 2 minutes. The cells were permeabilized by adding ice-cold methanol (to a final concentration of 90%) while vortexing and incubated on ice for 30 minutes. […] Flow cytometry was performed on a FACSCaliber® flow cytometer (BD Biosciences, San Jose, Calif.) and analyzed using Cellquest® software (Becton Dickinson). […]

For the next experiment, the target named is T2, FGFR3^S249C (Homo sapiens, UniProt P22607, S249C).
T2 construct: was transfected with full length FGFR1 (FDCP-FGFR1), FGFR2 (FDCP-FGFR2), FGFR3 (FDCP-FGFR3) or FGFR3^S249C mutant cDNAs; expressed in transfected cells; host or cells: FDCP-1 mouse myeloid progenitor cell line
T2 sequence (P22607 23-806 S249C): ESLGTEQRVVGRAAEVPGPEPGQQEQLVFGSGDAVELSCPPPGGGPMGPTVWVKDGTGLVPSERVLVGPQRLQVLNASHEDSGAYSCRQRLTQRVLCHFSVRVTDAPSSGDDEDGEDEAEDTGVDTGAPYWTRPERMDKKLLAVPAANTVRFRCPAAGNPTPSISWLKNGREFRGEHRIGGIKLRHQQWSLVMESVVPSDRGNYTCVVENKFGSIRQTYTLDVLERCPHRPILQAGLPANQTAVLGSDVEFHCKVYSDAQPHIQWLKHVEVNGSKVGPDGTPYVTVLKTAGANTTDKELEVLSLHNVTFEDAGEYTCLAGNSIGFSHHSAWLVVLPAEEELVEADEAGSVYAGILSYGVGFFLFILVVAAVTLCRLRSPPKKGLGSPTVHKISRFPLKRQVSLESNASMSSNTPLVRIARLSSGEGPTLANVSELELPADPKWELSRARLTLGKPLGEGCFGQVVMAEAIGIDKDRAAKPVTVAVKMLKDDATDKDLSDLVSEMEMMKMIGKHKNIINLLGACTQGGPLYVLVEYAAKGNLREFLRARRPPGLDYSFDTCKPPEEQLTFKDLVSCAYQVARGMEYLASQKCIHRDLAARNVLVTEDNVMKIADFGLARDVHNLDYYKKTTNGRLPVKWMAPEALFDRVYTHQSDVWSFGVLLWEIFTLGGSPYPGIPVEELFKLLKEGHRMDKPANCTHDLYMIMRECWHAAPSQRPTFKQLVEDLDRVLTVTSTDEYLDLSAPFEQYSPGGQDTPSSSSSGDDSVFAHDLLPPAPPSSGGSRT
Briefly: FGF-independent proliferation of FDCP-FGFR3^S249C cells in vitro (XTT). It counts as cell-based. Particulars: two days. On the procedure:
FIG. 8A is a graph showing viability of FDCP-FGFR3^S249C. Cells were cultured in the presence of increasing amounts of PRO-001 or a control antibody (C) for two days. Cell proliferation was determined by XTT analysis. Data are the average of duplicate cultures.
Non-transformed rat chondrocyte cell line expressing PGFR3 in an inducible manner (RCJ-FGFR3) has been described previously (Rauchenberger R. et al. J. Biol. Chem. 2003; 278:38194-205). Cells were maintained in α-Minimum Essential Media supplemented with 15% fetal calf serum (FCS), 2 mM L-Glutamine, 100 U/ml penicillin, 100 μg/ml streptomycin, 600 μg/ml G418 (Gibco BRL, Ontario, Canada), 2 μg/ml Tetracyclin (Sigma, Ontario, Canada), and 50 μg/ml HygromycinB (Gibco BRL). […]
as §1
Background: Tetrazolium assays rely on reduction of a dye to a coloured formazan, in cell work by metabolically active cells.

T1 sequence (P22607 23-806 Y373C): as the sequence (P22607 23-806 S249C) above, with C227S, Y351C counted along it

B1: PRO-001: human anti-FGFR3 Fab from HuCAL library; VH-CDR3 SEQ ID NO:1, VL-CDR3 SEQ ID NO:10; VH SEQ ID NO:19, VL SEQ ID NO:28 (antibody, V domains shown)
VH: QVQLQQSGPGLVKPSQTLSLTCAISGDSVSSNSAAWNWIRQSPGRGLEWLGRTYYRSKWYNDYAVSVKSRITINPDTSKNQFSLQLNSVTPEDTAVYYCARSYYPDFDYWGQGTLVTVSS
VL: DIELTQPPSVSVAPGQTARISCSGDALGDKYASWYQQKPGQAPVLVIYDDSDRPSGIPERFSGSNSGNTATLTISGTQAEDEADYYCQSYDGPDLWVFGGGTKLTVLGQ
For the molecule B1, in the experiment with FGFR3-Y373C, the “IC50, FGF-stimulated growth of cells expressing Y373C-FGFR3” value is listed as “approximately 3 μg/ml”. Further, in the experiment on ERK1/2 phosphorylation, the “FGF-induced ERK phosphorylation in primary myeloma cells” value was “blocked FGF-induced ERK phosphorylation”. Further, in the experiment with FGFR3^S249C, the “FGF-independent proliferation of FDCP-FGFR3^S249C in vitro” value was “efficiently blocked”.
